Source: patent publication US20260250398A1 (ANTLERA THERAPEUTICS, published 2026)

What was measured:
[1] = molecular target: T1, LRP6 (low-density lipoprotein receptor-related protein 6) (UniProt O75581 20-1370, limits assumed); test: cell-based or functional assay
T1 sequence (looked up): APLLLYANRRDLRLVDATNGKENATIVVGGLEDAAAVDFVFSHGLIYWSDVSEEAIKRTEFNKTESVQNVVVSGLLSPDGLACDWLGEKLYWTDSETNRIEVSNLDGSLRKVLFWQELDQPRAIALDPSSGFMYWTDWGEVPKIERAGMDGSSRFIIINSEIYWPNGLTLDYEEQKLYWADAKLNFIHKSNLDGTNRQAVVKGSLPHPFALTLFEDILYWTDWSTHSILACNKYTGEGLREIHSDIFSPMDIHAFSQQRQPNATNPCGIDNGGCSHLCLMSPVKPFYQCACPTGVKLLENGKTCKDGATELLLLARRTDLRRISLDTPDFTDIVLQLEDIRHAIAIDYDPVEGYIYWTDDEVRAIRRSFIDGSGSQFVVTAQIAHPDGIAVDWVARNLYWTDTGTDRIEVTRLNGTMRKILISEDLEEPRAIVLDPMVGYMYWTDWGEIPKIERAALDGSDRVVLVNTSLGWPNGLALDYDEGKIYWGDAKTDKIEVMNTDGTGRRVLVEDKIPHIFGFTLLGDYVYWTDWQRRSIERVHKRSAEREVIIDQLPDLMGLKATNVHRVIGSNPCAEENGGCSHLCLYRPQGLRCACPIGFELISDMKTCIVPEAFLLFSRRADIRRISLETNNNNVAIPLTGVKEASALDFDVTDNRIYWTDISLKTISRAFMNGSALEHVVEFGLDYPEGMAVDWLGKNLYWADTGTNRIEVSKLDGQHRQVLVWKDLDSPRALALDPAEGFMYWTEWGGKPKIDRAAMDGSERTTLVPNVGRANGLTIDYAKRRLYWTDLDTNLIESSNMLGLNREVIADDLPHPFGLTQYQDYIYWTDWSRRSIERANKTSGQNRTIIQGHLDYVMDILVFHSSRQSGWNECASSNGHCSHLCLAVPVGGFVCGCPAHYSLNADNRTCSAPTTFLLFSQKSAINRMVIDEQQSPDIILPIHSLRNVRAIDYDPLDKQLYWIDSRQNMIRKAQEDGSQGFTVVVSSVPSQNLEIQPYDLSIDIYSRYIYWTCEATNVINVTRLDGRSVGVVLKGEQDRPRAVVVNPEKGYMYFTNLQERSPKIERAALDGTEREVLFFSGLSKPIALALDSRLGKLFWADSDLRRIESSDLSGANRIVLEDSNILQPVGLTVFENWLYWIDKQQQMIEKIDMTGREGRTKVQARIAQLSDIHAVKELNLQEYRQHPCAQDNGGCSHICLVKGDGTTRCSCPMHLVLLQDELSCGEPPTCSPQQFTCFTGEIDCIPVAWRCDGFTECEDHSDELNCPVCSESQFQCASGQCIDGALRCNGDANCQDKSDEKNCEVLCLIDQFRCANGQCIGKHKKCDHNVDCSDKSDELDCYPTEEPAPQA

[2] = molecular target: T1, LRP6 (low-density lipoprotein …); test: cell-based or functional assay; remark: listed apart in the source

TOPFLASH % Wnt Maxima [1]: 49 % Wnt Maxima | TOPFLASH Maximal Signal (% Wnt3a maxima) [2]: 50 % Wnt3a maxima
B1: ANT-1 (LRP Diabody-Fc-FZD Fab; paratopes 2540, 2542; 5016) (bispecific antibody)
heavy 1: MNLLLILTFVAAAVAEFEVQLVESGGGLVQPGGSLRLSCAASGFNISSYYIHWVRQAPGKGLEWVASIYSSYGYTSYADSVKGRFTISADTSKNTAYLQMNSLRAEDTAVYYCARTVRGSKKPYFSGWAMDYWGQGTLVTVSSGGGGSDIQMTQSPSSLSASVGDRVTITCRASQSVSSAVAWYQQKPGKAPKLLIYSASSLYSGVPSRFSGSRSGTDFTLTISSLQPEDFATYYCQQYYFLITFGQGTKVEIKLEDKTHTKVEPKSSDKTHNCPPCPAPELLGGPSVFLFPPKPKDTLMISRTPEVTCVVVDVSHEDPEVKFNWYVDGVEVHNAKTKPREEQYNSTYRVVSVLTVLHQDWLNGKEYKCKVSNKALPAPIEKTISKAKGQPREPQVYTLPPIRELMTSNQVSLSCAVKGFYPSDIAVEWESNGQPENNYKTTPPVLDSDGSFFLVSKLTVDKSRWQQGNVFSCSVMHEALHNHYTQKSLSLSPGKSGSETPGTSESATPESGGGEVQLVESGGGLVQPGGSLRLSCAASGFNIHSSSIHWVRQAPGKGLEWVAATYSSFGSITYADSVKGRFTISADTSKNTAYLQMNSLRAEDTAVYYCARYHHPFGYALDYWGQGTLVTVSSASTKGPSVFPLAPSSKSTSGGTAALGCLVKDYFPEPVTVSWNSGALTSGVHTFPAVLQSSGLYSLSSVVTVPSSSLGTQTYICNVNHKPSNTKVDKKVEPKSCDKTHT
heavy 2: MNLLLILTFVAAAVAEFEVQLVESGGGLVQPGGSLRLSCAASGFNISYSSIHWVRQAPGKGLEWVASISPYYGYTYYADSVKGRFTISADTSKNTAYLQMNSLRAEDTAVYYCARSSYFPWFSAMDYWGQGTLVTVSSGGGGSDIQMTQSPSSLSASVGDRVTITCRASQSVSSAVAWYQQKPGKAPKLLIYSASSLYSGVPSRFSGSRSGTDFTLTISSLQPEDFATYYCQQYYWPITFGQGTKVEIKLEDKTHTKVEPKTSDKTHTCPPCPAPELLGGPSVFLFPPKPKDTLMISRTPEVTCVVVDVSHEDPEVKFNWYVDGVEVHNAKTKPREEQYNSTYRVVSVLTVLHQDWLNGKEYKCKVSNKALPAPIEKTISKAKGQPREPMVFDLPPSREEMTKNQVSLWCMVKGFYPSDIAVEWESNGQPENNYKTTPPVLDSDGSFFLYSKLTVDKSRWQQGNVFSCSVMHEALHNHYTQKSLSLSPGKSGSETPGTSESATPESGGGEVQLVESGGGLVQPGGSLRLSCAASGFNIHSSSIHWVRQAPGKGLEWVAATYSSFGSITYADSVKGRFTISADTSKNTAYLQMNSLRAEDTAVYYCARYHHPFGYALDYWGQGTLVTVSSASTKGPSVFPLAPSSKSTSGGTAALGCLVKDYFPEPVTVSWNSGALTSGVHTFPAVLQSSGLYSLSSVVTVPSSSLGTQTYICNVNHKPSNTKVDKKVEPKSCDKTHT
light: DIQMTQSPSSLSASVGDRVTITCRASQSVSSAVAWYQQKPGKAPKLLIYSASSLYSGVPSRFSGSRSGTDFTLTISSLQPEDFATYYCQQGVYLFTFGQGTKVEIKRTVAAPSVFIFPPSDEQLKSGTASVVCLLNNFYPREAKVQWKVDNALQSGNSQESVTEQDSKDSTYSLSSTLTLSKADYEKHKVYACEVTHQGLSSPVTKSFNRGEC
